Laboratory results as given in patent US7838288B2, “Modulators of odorant receptors” (Duke University, priority 2004, dated 2010).
Each block holds one molecule with its values, some of them ahead of it.

What was measured:
[1] = system: olfr62; experiment: Living-cell staining of cell-surface olfr62; assay type: cell-based, mouse
Protocol: The proteins encoded by these clones were named REEP1, for Receptor Expression Enhancing Protein 1 and RTP1, for Receptor Transporting Protein 1. Subsequently, RTP2 was found, a close relative of RTP1. […] Next, REEP1, RTP1, and RTP2 were tested to detect a similar effect in promoting cell-surface expression of other ORs. Four different ORs (mouse OREG, mouse olfr62, mouse OR-S46 and rat I7) were expressed in 293T cells with or without REEP1, RTP1, or RTP2. […] Additionally, ORs transfected with REEP and/or RTP generated more immunofluorescent cells and stronger signals in positive cells compared with ORs without REEP and/or RTP (see FIG. 2A). The signal intensity and the number of immunopositive cells varied when using different ORs at each condition. […] Nonetheless, occasional immunopositive cells were observed only when the accessory proteins were co-expressed. The effects of RTP1 or RTP2 were consistently more robust than that of REEP1. The enhancement of cell-surface expression was specific for ORs and not for other GPCRs: neither REEP and/or RTP enhanced expression of the β2 adrenergic receptor, mT2R5 (a mouse bitter taste receptor) (see, e.g., Chandrashekar, J., et al. (2000) Cell 100, 703-711; herein incorporated by reference in its entirety), or a V2R pheromone receptor (VR4) (see, e.g., Matsunami, H., and Buck, L. B. (1997) Cell 90, 775-784; herein incorporated by reference in its entirety) (see FIG. 2A and FIG. 3). Finally, enhancement of cell-surface expression of MOR203-1 was not observed when other members of the REEP and RTP families (REEP2 and RTP4) were co-expressed.
293T cells were maintained in minimal essential medium containing 10% fetal bovine serum (M10). Lipofectamine 2000 (Invitrogen) was used for transfection. In live-cell staining, 16 hours after transfection, cells were incubated in M10 containing anti rhodopsin antibody, 4D2 (see, e.g., Laird, D. W., and Molday, R. S. (1988) Invest Opthalmol V is Sci 29, 419-428; herein incorporated by reference in its entirety) and 15 mM NaN3 at 4 degrees C. for 1 hour. After washing, cells were incubated with Cy3-conjugated anti mouse IgG (Jackson Immunologicals), washed and mounted. For FACS analysis, 4D2 and PE-conjugated anti mouse IgG (Jackson Immunologicals) were used to monitor the Rho tagged receptor expression. Anti HA rabbit antibodies (Sigma) and Alexa 488 conjugated anti rabbit IgG (Molecular Probes) was used to stain the HA-β2 adrenergic receptor. To establish the Hana3a cells, 1 ug/ml of puromycin was used for selection. 96 colonies were picked and assayed using luciferase assay using OREG.

[2] = system: olfr62; experiment: CRE-luciferase reporter gene assay, olfr62; assay type: cell-based, mouse; details: 293T cells and Hana3A cells expressing RTP1 variant
Protocol: Four ORs (S6/79, S18, S46 and S50) previously assayed using other techniques (see, e.g., Malnic, B., et al. (1999) Cell 96, 713-723; herein incorporated by reference in its entirety) were tested against an assay panel of aliphatic alcohols, aldehydes and acids and some other odorants. Additionally, five “orphan” class I ORs (MOR23-1, MOR31-4, MOR31-6, MOR32-5 and MOR32-11) whose cognate ligands were unknown were tested. At a suprathreshold concentration of 100 uM, all these ORs were odorant selective, responding to only a small subset of the odorants tested (see FIG. 11A). This specificity was retained at lower, more physiologically relevant concentrations. Many of these ORs responded to odorants present in micromolar concentrations. The cell-surface expression of these ORs by living-cell immunofluorescence were evaluated. Some ORs (S18, MOR31-4, MOR31-6 and MOR32-5) were strongly expressed while other ORs (S6, S50, MOR23-1, MOR32-11) were weakly expressed (see FIG. 12). The present invention is not limited to a particular mechanism. Indeed, an understanding of the mechanism is not necessary to practice the present invention. […] Finally, two additional orphan class II ORs, MOR203-1 and olfr62, were tested against a panel of 139 odorants. […] Olfr62 responded to coumarine and piperonal (see FIG. 11C). […] When parental 293T cells for these ORs were used in this luciferase assay, little or no response to the odorants was observed. The present invention is not limited to a particular mechanism. Indeed, an understanding of the mechanism is not necessary to practice the present invention.
Dual-Glo system (Promega) for luciferase assay was used. CRE-Luciferase (Stratagene) was used to measure the receptor activities. Renilla luciferase driven by constitutively active SV40 promoter (pRL-SV40: Promega) was used as an internal control. Cells were plated on poly-D-lysine coated 96 well plates (BIOCOAT, Beckton Dickinson). After 8 hours (for experiments shown in FIGS. 8B and 8C) or 12 hours (for experiments shown in FIG. 8D and FIG. 11) after transfection, the medium was replaced with CD293 chemically defined medium (Invitrogen) and the plates were incubated for one hour at 37 degrees C. The medium was replaced with 50 ul of odorant solutions dissolved in CD293 and incubated for 10 hours (for experiments shown in FIGS. 8B and 8C) or 4 hours (for experiments shown in FIG. 8D and FIG. 11) at 37 degrees C. The manufacture's protocol for measuring luciferase and Renilla luciferase activities was followed. Luminescence was measured using Wallac Victor 1420 (Perkin-Elmer). Normalized luciferase activity was calculated as [Luc (N)-Luc (0)]/RL (N), where Luc (N)=Luminescent count of a certain well, Luc (0)=Luminescent count without odorant for each OR, and RL (N)=Luminescent count of Renilla Luciferase of each well. For cAMP assays, cells were plated onto 24-well plate. […]. Prism software (Graphpad) was used for data analysis. […]

[3] = system: MOR203-1; experiment: Co-immunoprecipitation with HA-tagged MOR203-1; assay type: binding, mouse; details: Flag-tagged protein, 293T cells, HA-MOR203-1 precipitated
Protocol: Given the ability of REEP and/or RTP to promote cell-surface expression of ORs, it was hypothesized that they may also interact with OR proteins. This was assessed using co-immunoprecipitation assays. HA-tagged MOR203-1 and Flag-tagged REEP1, RTP1 or ICAP-1, a negative control (see, e.g., Zawistowski, J. S., et al. (2002) Hum Mol Genet. 11, 389-396; herein incorporated by reference in its entirety) were transfected in 293T cells. After the cell extracts were precipitated with anti-Flag antibodies, proteins were eluted in SDS-sample buffer at room temperature whereupon western blotting analysis was performed to detect the OR proteins. OR proteins were detected as high molecular weight bands after precipitation of REEP1 or RTP1 (see FIG. 7B, lanes 1 and 2). […] The present invention is not limited to a particular mechanism. Indeed, an understanding of the mechanism is not necessary to practice the present invention.
293T cells in 100 mm dishes were transfected with ORs, REEP1, and/or RTP1 cDNAs. 16 hours after transfection, cells were lysed in lysis buffer (50 mM Tris (7.4), 150 mM NaCl, 1% NP-40, 0.5 mM PMSF, 2 mM Benzamidene, 0.5 ug/ml Leupeptin, 1.4 ug/ml pepstatin A, 2.4 ug/ml chymostatin, 15 ug/ml aprotinin, 1 mM sodium orthovanadate). The lysis were incubated with anti-Flag M2 affinity gel (Sigma) or anti-HA affinity matrix (Roche) for 2 hours at 4 degrees C. and washed with lysis buffer. Subsequently, the bound proteins were eluted by incubation with SDS sample buffer at room temperature for 2 hours. SDS-PAGE and western blotting were performed according to Mini-Protean 3 Cell (Bio-Rad) instruction manual. ECL (Amersham) was used for detecting proteins on membranes.

[4] = accessory protein co-transfected in 293T cells

OLFR62 activity as indicated by luciferase expression [2]: Increased enhancement
B1: RTP1-D: RTP1 variant generated by deleting portions of RTP1; murine SEQ ID NO: 44 (protein, listed as Mus musculus)
chain: MRIFRPWRLRCPALHLPSFPTFSIKCSLPPLPTDEDMCKSVTTGEWKKVFYEKMEEVKPADSWDFIIDPNLKHNVLAPGWKQYLELHASGRFHCSWCWHTWQSPHVVILFHMYLDKAQRAGSVRMRVFKQLCYECGTARLDESSMLEENIESLVDNLITSLREQCYGERGGHYRIHVASRQDNRRHRGEFCEACQEGIVHWKPSEKLLEEEATTYTFSRAPSPTKPQAETGSGC
cell-surface expression of olfr62 ([1]; RTP1 variant cDNA transfected into Hana3A cells or 293T cells): Increased cell-surface staining

B2: RTP1-D3: RTP1 variant from deleting portions of RTP1-D; murine SEQ ID NO: 50 (protein, listed as Mus musculus)
chain: MRIFRPWRLRCPALHLPSFPTFSIKCSLPPLPTDEDMCKSVTTGEWKKVFYEKMEEVKPADSWDFIIDPNLKHNVLAPGWKQYLELHASGRFHCSWCWHTWQSPHVVILFHMYLDKAQRAGSVRMRVFKQLCYECGTARLDESSMLEENIESLVDNLITSLREQCYGERGGHYRIHVASRQDNRRHRGEFCEACQEGIVHWKPSEKLLEEEATTYTFSRAPSPTKPQAETGSGCNFCSIPWCLFWATVLMLII
cell-surface expression of olfr62 [1, 4]: Increased cell-surface staining

B3: RTP1-D1: RTP1 variant from deleting portions of RTP1-D; murine SEQ ID NO: 48 (protein, listed as Mus musculus)
chain: MRIFRPWRLRCPALHLPSFPTFSIKCSLPPLPTDEDMCKSVTTGEWKKVFYEKMEEVKPADSWDFIIDPNLKHNVLAPGWKQYLELHASGRFHCSWCWHTWQSPHVVILFHMYLDKAQRAGSVRMRVFKQLCYECGTARLDESSMLEENIESLVDNLITSLREQCYGERGGHYRIHVASRQDNRRHRGEFCEACQEGIVHWKPSEKLLEEEA
cell-surface expression of olfr62 [1, 4]: Increased cell-surface staining

B4: ICAP-1: a negative control protein, Flag-tagged (protein, UniProt O14713 1-200, looked up)
Integrin beta-1-binding …: MFRKGKKRHSSSSSQSSEISTKSKSVDSSLGGLSRSSTVASLDTDSTKSSGQSNNNSDTCAEFRIKYVGAIEKLKLSEGKGLEGPLDLINYIDVAQQDGKLPFVPPEEEFIMGVSKYGIKVSTSDQYDVLHRHALYLIIRMVCYDDGLGAGKSLLALKTTDASNEEYSLWVYQCNSLEQAQAICKVLSTAFDSVLTSEKP
modifications: Flag tag
notes: a negative control protein, Flag-tagged
co-precipitation with HA-MOR203-1 [3]: not detectable
